Experimental findings from patent US20250026813A1 (published 2025) are described below.

Test [1] concerns the target SARS-CoV-2 spike protein trimer, wild type (FIG. 2A sequence) with C-terminal trimerisation domain (SARS-CoV-2, UniProt P0DTC2 14-1213).
Test [2] concerns the target SARS-CoV-2 S2 spike domain (Sino Biological) (SARS-CoV-2, UniProt P0DTC2 686-1213).
For test [3], the target named is T1, Receptor binding domain (Neil King, University of Washington) (SARS-CoV-2, UniProt P0DTC2 328-531). The test is described as follows: SPR (Biacore 8K), antibody captured by anti-hFc, RBD as analyte.
In test [4] the target is SARS-CoV-2 spike protein on live virus SARS-CoV-2 Victoria/01/2020 (SARS-CoV-2, UniProt P0DTC2 14-1273). Briefly: cell-based or functional assay.
Test [5] deals with T1, Receptor binding domain (Neil King, …).
Test [6] concerns the target RBD domain of the SARS-CoV-2 spike protein (Acro Biosystems SPD-C52H3), His tag (SARS-CoV-2, UniProt P0DTC2 319-537).
The target in test [7] is SARS-CoV-2 spike protein receptor binding domain (isolated RBD) (SARS-CoV-2, UniProt P0DTC2 319-541). The test is described as follows: SPR (Biacore 8K), IgG1 captured via anti-hFc, RBD as analyte, 1:1 fit. On the technique in general: In SPR one partner is held on a chip, and binding of the other changes the refractive index at the surface.
The target in test [8] is SARS-CoV-2 spike protein receptor binding domain (RBD) (SARS-CoV-2, UniProt P0DTC2 319-541). The test is described as follows: HT-SPR (Carterra LSA); IgG captured by anti-human Fc, RBD as analyte, 1:1 fit.

Numbering of substitutions follows the chain as printed. Several values for one entry are separate records, joined by “and”; a condition that tells them apart may be missing. Identical values can stand only once.

B1: IMPI-013 (antibody, V domains shown)
VH: EVQLVESGGGLVQPGRSLRLSCAASGFTFDDYAMHWVRQTPGKGLEWVSGISWNSGSIGYADSVKGRFTISRDNAKNSLYLQMNSLRAEDTALYYCTKDLGLGIGFYYGLDVWGQGTTVTVSS
VL: AIQMTQSPSSLSTSVGDRVTITCRASQGIRNDLGWYQLKPGKAPKLLIYDASTLQSGVPSRFSGSGSGTDFTLTISSLEPEDLATYYCLHHYTYPWTFGHGTKVELK
For orientation: Kd means the constant that tells how readily two partners part at equilibrium. Higher therefore signals lower affinity. With B1, the Kd worked out at 0.67 nM in test [1] and 0.126 nM in test [2].

B2: IMPI-013 (antibody, V domains shown)
VH: B1 VH
VL: B1 VL
notes: also called IMP-013
With B2, in test [3], the binding result is “no binding (tested: up to 100 nM analyte)”.

B3: IMPI-004 (antibody, V domains shown)
VH: QVQLVESGGGVVQPGRSLRLSCAASGFTFSSYGMHWVRQAPGKGLEWVAVIWYDGGNKYYADSVKGRFTISRDNSKNTLYLQMNSLRAEDTAVYYCARVNVLMGYGMDVWGQGTTVTVSS
VL: EIVLTQSPGTLSLSPGDKATLSCRASQSIISSFLAWYQQKPGQAPRLLIYGASSRATGIPDRFSGSGSGTDFTLTISRLEPEDFAVYYCQQYGSSLTFGGGTKVEIK
In the case of B3, the “IC50, live virus foci (plaque) reduction neutralisation assay on Vero cells” value in test [4] was 13 ng/ml and 86 pM.

B4: IMPI-059 (antibody, V domains shown)
VH: EVQLVESGGGLIQPGGSLRLSCAASGFTVSSIYMSWVRQAPGKGLEWVSIIYSRGSTDYADSVKGRFTISRDISKNTLYLQMNSLRAEDTAVYYCARDGTMVRGVHAFDIWGQGTMVTVSS
VL: DIQMTQSPPSLSASIGDRVTITCQASQDISNYLNWYQQKPGKAPKLLIYDASNLETGVPSRFSGSGSGTDFTLTISNLQPEDIVTYYCQQYDNLPSSFGQGTKLEIK
As for B4, the “IC50, live virus foci (plaque) reduction neutralisation assay on Vero cells” value in test [4] worked out at 0.026 nM. In test [5], this molecule gave a Kd below 1 nM.

B5: IMPI-063 (antibody, V domains shown)
VH: EVQLVESGGGVVRPGGSLRLSCAASGFTFDDYGMSWVRQAPGKGLEWVSGIYWNGGSTGYADSVKGRFTISRDNAKNSLYLQMNSLRAEDMALYYCARGVGATDYWGQGTLVTVSS
VL: EIVLTQSPGTLSLSSGERATLACRASESVRGSFLAWYQQKPGQAPRLLIYGASRRATGIPDRFSGSGSGTDFTLTISRLEPEDFAVYYCQQYGNSPMCSFGQGTKLEIK
As a reminder, the koff is a measure of how fast the partners let go of each other. A low value points to slow dissociation. Usually kon stands for the rate constant with which the complex forms. B5: in test [1], binding was characterised by a dissociation constant (Kd) of 2.29 nM, the koff came out at 0.000939 s⁻¹ and the kon is 411000 M⁻¹ s⁻¹. In test [2], binding was characterised by a dissociation constant (Kd) of 0.845 nM, the koff was found to be 7.77 s⁻¹ and the kon stood at 9.19e+09 M⁻¹ s⁻¹.

B6: IMPI-063 (antibody, V domains shown)
VH: B5 VH
VL: B5 VL
B6: the binding result in test [3] is recorded as “no binding (tested: up to 100 nM analyte)”.

B7: IMPI-002 (antibody, V domains shown)
VH: EVQLVESGGGLIQPGGSLRLSCAASGVTVSSNYMSWVRQAPGKGLEGVSVIYSGGSTYYADSVKGRFTISRDNSKNTLYLQMNSLRAEDTAVYYCARDTVVYGMDVWGQGTTVTVSS
VL: DIQLTQSPSFLSASVGDRVTITCWASQGISSYLAWYQQKPGKAPKLLIYAASTLQSGVPSRFSGSGSGTEFTLTISSLQPEDFATYYCQQLNSYPLTFGGGTKVEIK
As for B7, in test [6], the “HTRF deltaF” value was 172 deltaF.

B8: IMPI-052 (antibody, V domains shown)
VH: B7 VH with S35N, S56T
VL: B7 VL with A50T
Regarding B8, in test [6], the “HTRF deltaF” value stood at 229 deltaF.

B9: IMPI-052 (antibody, V domains shown)
VH: B7 VH with S35N, S56T
VL: B7 VL with A50T
Take B9: binding in test [7] was characterised by a dissociation constant (Kd) of 13.2 nM. This counts as double-digit nanomolar.

B10: IMPI-052 (antibody, V domains shown)
VH: B7 VH with S35N, S56T
VL: B7 VL with A50T
Molecule B10 came in with a Kd in test [8] of 24.1 nM.
